Results from article doi:10.1101/552281 (bioRxiv, 2019).
Where two headings read alike, the source gives them in different places.

Legend:
[1] = target: catalytic domain of human phenylalanine hydroxylase (hPAH-CD) (human); assay: crystal structure
[2] = target: the molecule itself; assay: cryo-EM structure
[3] = target: the molecule itself
[4] = target: the molecule itself; assay: crystal structure

| Molecule | stoichiometry N [3] | also measured |
| --- | --- | --- |
| catalytic domain of human phenylalanine hydroxylase (hPAH-CD) (domain or fragment) | – | stoichiometry N [1]: 2 |
| full-length human phenylalanine hydroxylase (enzyme, UniProt P00439 1-452, looked up) MSTAVLENPGLGRKLSDFGQETSYIEDNCNQNGAISLIFSLKEEVGALAKVLRLFEENDVNLTHIESRPSRLKKDEYEFFTHLDKRSLPALTNIIKILRHDIGATVHELSRDKKKDTVPWFPRTIQELDRFANQILSYGAELDADHPGFKDPVYRARRKQFADIAYNYRHGQPIPRVEYMEEEKKTWGTVFKTLKSLYKTHACYEYNHIFPLLEKYCGFHEDNIPQLEDVSQFLQTCTGFRLRPVAGLLSSRDFLGGLAFRVFHCTQYIRHGSKPMYTPEPDICHELLGHVPLFSDRSFAQFSQEIGLASLGAPDEYIEKLATIYWFTVEFGLCKQGDSIKAYGAGLLSSFGELQYCLSEKPKLLPLELEKTAIQNYTVTEFQPLYYVAESFNDAKEKVRNFAATIPRPFSVRYDPYTQRIEVLDNTQQLKILADSINSEIGILCSALQKIK | – | stoichiometry N [2]: 4 |
| hPAH mutant Y377F (enzyme, human, UniProt P00439 1-452, looked up) MSTAVLENPGLGRKLSDFGQETSYIEDNCNQNGAISLIFSLKEEVGALAKVLRLFEENDVNLTHIESRPSRLKKDEYEFFTHLDKRSLPALTNIIKILRHDIGATVHELSRDKKKDTVPWFPRTIQELDRFANQILSYGAELDADHPGFKDPVYRARRKQFADIAYNYRHGQPIPRVEYMEEEKKTWGTVFKTLKSLYKTHACYEYNHIFPLLEKYCGFHEDNIPQLEDVSQFLQTCTGFRLRPVAGLLSSRDFLGGLAFRVFHCTQYIRHGSKPMYTPEPDICHELLGHVPLFSDRSFAQFSQEIGLASLGAPDEYIEKLATIYWFTVEFGLCKQGDSIKAYGAGLLSSFGELQYCLSEKPKLLPLELEKTAIQNFTVTEFQPLYYVAESFNDAKEKVRNFAATIPRPFSVRYDPYTQRIEVLDNTQQLKILADSINSEIGILCSALQKIK | 4 | – |
| hPAH mutant Y138F (enzyme, human, UniProt P00439 1-452, looked up) MSTAVLENPGLGRKLSDFGQETSYIEDNCNQNGAISLIFSLKEEVGALAKVLRLFEENDVNLTHIESRPSRLKKDEYEFFTHLDKRSLPALTNIIKILRHDIGATVHELSRDKKKDTVPWFPRTIQELDRFANQILSFGAELDADHPGFKDPVYRARRKQFADIAYNYRHGQPIPRVEYMEEEKKTWGTVFKTLKSLYKTHACYEYNHIFPLLEKYCGFHEDNIPQLEDVSQFLQTCTGFRLRPVAGLLSSRDFLGGLAFRVFHCTQYIRHGSKPMYTPEPDICHELLGHVPLFSDRSFAQFSQEIGLASLGAPDEYIEKLATIYWFTVEFGLCKQGDSIKAYGAGLLSSFGELQYCLSEKPKLLPLELEKTAIQNYTVTEFQPLYYVAESFNDAKEKVRNFAATIPRPFSVRYDPYTQRIEVLDNTQQLKILADSINSEIGILCSALQKIK | 4 | – |
| hPAH mutant S23A (enzyme, human, UniProt P00439 1-452, looked up) MSTAVLENPGLGRKLSDFGQETAYIEDNCNQNGAISLIFSLKEEVGALAKVLRLFEENDVNLTHIESRPSRLKKDEYEFFTHLDKRSLPALTNIIKILRHDIGATVHELSRDKKKDTVPWFPRTIQELDRFANQILSYGAELDADHPGFKDPVYRARRKQFADIAYNYRHGQPIPRVEYMEEEKKTWGTVFKTLKSLYKTHACYEYNHIFPLLEKYCGFHEDNIPQLEDVSQFLQTCTGFRLRPVAGLLSSRDFLGGLAFRVFHCTQYIRHGSKPMYTPEPDICHELLGHVPLFSDRSFAQFSQEIGLASLGAPDEYIEKLATIYWFTVEFGLCKQGDSIKAYGAGLLSSFGELQYCLSEKPKLLPLELEKTAIQNYTVTEFQPLYYVAESFNDAKEKVRNFAATIPRPFSVRYDPYTQRIEVLDNTQQLKILADSINSEIGILCSALQKIK | 4 | – |
| ΔN13-hPAH (human phenylalanine hydroxylase lacking the N-terminal 13 residues) (enzyme, UniProt P00439 14-452, looked up) KLSDFGQETSYIEDNCNQNGAISLIFSLKEEVGALAKVLRLFEENDVNLTHIESRPSRLKKDEYEFFTHLDKRSLPALTNIIKILRHDIGATVHELSRDKKKDTVPWFPRTIQELDRFANQILSYGAELDADHPGFKDPVYRARRKQFADIAYNYRHGQPIPRVEYMEEEKKTWGTVFKTLKSLYKTHACYEYNHIFPLLEKYCGFHEDNIPQLEDVSQFLQTCTGFRLRPVAGLLSSRDFLGGLAFRVFHCTQYIRHGSKPMYTPEPDICHELLGHVPLFSDRSFAQFSQEIGLASLGAPDEYIEKLATIYWFTVEFGLCKQGDSIKAYGAGLLSSFGELQYCLSEKPKLLPLELEKTAIQNYTVTEFQPLYYVAESFNDAKEKVRNFAATIPRPFSVRYDPYTQRIEVLDNTQQLKILADSINSEIGILCSALQKIK | – | stoichiometry N [4]: 4 |
